In assay [1] the target is T1, human IL17F (Homo sapiens, UniProt Q96PD4).
T1 construct: interleukin-17F, human
Kind of assay: ELISA; IL17F immobilized; mAbs and germline counterparts added.

The target of another assay is T2, human IL22 (Homo sapiens, UniProt Q9GZX6).
T2 construct: interleukin-22, human; also called interleukin-22
Kind of assay: SPR; Biacore T200; who was immobilised is not told for these mAbs (values of Table S3). Conditions: both partners purified.

The target in assay [2] is T1, human IL17F. The description is as above. The settings on record: both partners purified.
The target of the next assay is T3, recombinant human IFNω (Homo sapiens, UniProt P05000).
T3 construct: interferon omega-1, human; source: recombinant
T3 sequence (P05000 22-195): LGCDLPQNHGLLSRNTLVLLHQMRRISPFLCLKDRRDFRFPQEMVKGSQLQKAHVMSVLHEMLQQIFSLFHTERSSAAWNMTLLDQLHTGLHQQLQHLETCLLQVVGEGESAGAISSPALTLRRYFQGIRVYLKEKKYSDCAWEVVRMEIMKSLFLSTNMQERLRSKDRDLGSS
In words: SPR; antibodies 19D11 and 26B9 immobilized on Biacore chips; different concentrations of recombinant human IFNs passed over; Biacore T200. The settings on record: both partners purified.

The next assay concerns the target T4, recombinant human IFNα14 (Homo sapiens, UniProt P01570).
T4 construct: interferon alpha-14, human; source: recombinant
The assay is described as above. The settings on record: both partners purified.

A further assay addresses T5, recombinant human IFNα4 (Homo sapiens, UniProt P05014).
T5 construct: interferon alpha-4, human; source: recombinant
The assay is described as above. Conditions: both partners purified.

Where only a bound is given, the exact number is not on record here.

T2 sequence (Q9GZX6 34-179): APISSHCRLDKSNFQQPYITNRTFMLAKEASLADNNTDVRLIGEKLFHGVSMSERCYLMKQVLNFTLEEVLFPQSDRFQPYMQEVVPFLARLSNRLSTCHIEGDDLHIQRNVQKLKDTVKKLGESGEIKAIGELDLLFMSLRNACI
T1 sequence (Q96PD4 31-163): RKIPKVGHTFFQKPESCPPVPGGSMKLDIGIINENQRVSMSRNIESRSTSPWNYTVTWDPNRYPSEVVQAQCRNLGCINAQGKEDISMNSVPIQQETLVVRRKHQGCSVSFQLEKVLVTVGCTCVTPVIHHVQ
T4 sequence (P01570 24-189): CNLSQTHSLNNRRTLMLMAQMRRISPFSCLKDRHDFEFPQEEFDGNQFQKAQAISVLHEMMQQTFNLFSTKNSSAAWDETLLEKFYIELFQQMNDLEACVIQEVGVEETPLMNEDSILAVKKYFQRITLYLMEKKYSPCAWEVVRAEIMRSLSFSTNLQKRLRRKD
T5 sequence (P05014 24-189): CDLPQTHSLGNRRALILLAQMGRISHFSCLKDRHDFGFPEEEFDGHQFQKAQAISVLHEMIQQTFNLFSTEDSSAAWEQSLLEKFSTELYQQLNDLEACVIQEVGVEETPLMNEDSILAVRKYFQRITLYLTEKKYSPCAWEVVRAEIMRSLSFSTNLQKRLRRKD

B1: 9A2, patient-derived IL17F-reactive mAb (antibody, V domains shown)
VH: EVQLEESGGGLVQPGGSLRLSCAASGFPFSNYEMNWVRQAPGKGLEWISYISVSGGPAHYADSVKGRFTISRDDATKSLFLQMNRLRADDTAVYYCVRREYVTGRNYNYYPYMDVWGTGTTVTVSP
VL: DIQMTQSPSSLSASVGDRVTITCRASQTISDYLNWYQHKPGEAPKLLIYSASTLQRGVPSRFSGSGSGTDFVFTISSLQSDDFATYYCQQTSSTALTFGGGTKVEVK
notes: source: recombinant
Regarding B1, the binding result with human IL17F [1] is reported as “binds”.

B2: 30G1, patient-derived IgGκ antibody specific for IL22 (antibody, V domains shown)
VH: EVQLLESGGGLVQPGGSLRLSCAASGFTFSTYAMSWVRQAPGKGLEWVSTITSSGGATYHADSVKGRLTISRDNSKNTLYLEMNSLRVEDTAVYYCAKDWGRTVYAVIKDLDIWGQGTLVTVSS
VL: EIVMTQSPAILSVSPGERATLSCRASQSVSNYLAWFQQKPGQAPRLLIYDTSKRATGTPARFSGSGSGTDFTLTISSLEPEDFAVYFCQQRSDWPQYTFGQGTKLEIK
notes: kappa light chain; IgG1 kappa by the cloning vectors; source: recombinant
The molecule B2 displayed a Kd with human IL22 of 37 pM.

B3: fezakinumab, CHO cell-expressed form (in-house-expressed anti-IL22 mAb) (antibody, V domains shown)
VH: QVQLVQSGAEVKKPGASVKVSCKASGYTFTNYYMHWVRQAPGQGLEWVGWINPYTGSAFYAQKFRGRVTMTRDTSISTAYMELSRLRSDDTAVYYCAREPEKFDSDDSDVWGRGTLVTVSS
VL: QAVLTQPPSVSGAPGQRVTISCTGSSSNIGAGYGVHWYQQLPGTAPKLLIYGDSNRPSGVPDRFSGSKSGTSASLAITGLQAEDEADYYCQSYDNSLSGYVFGGGTQLTVL
notes: expressed as the patient mAbs (vectors providing IgG1 and light-chain constant regions); source: CHO cell-expressed; V regions ordered as CHO-codon-optimized synthetic constructs (GenScript)
In the assay with human IL22, B3 yielded a Kd of 54 pM.

B4: 17E3, patient-derived IgGκ mAb specific for IL17F (antibody, V domains shown)
VH: QVQLVQSGAEVAKPGASVRLSCKASGFSFIKYYMHWVRQAPGQGLEWMGVIEPTGGGTSSAQKFRDRVTLSRDTSTATVHLEVSRLTLEDTGIYFCVRDSIYCKHGTCHRTVIDAFDIWGQGTAVTVSS
VL: DIQMTQSPSSLSASVGDRVTITCRSSQDIKNDLAWYQQKPGKAPERLIYAASNLQSGVPSRFSGSGSGTEFSLTISGLQPEDFATYYCLQHNSYPLLTFGGGTKVEIK
notes: as for B2
On to B4, for which the Kd with human IL17F [2] was less than 10 pM.

B5: 19D11, APS1/APECED patient-derived anti-IFN monoclonal antibody (antibody, V domains shown)
VH: QVQLVQSGAEVKRPGSSVRVSCRASGDTFSSYPISWVRQAPGQGLEWMGRILPALGVTNYAQNFRGRITITADKSPLTAYLELSSLRFEDTAVYYCASPSADIIPSILGTTLFAFWGQGSLVTVSS
VL: EIVLTQSPGTLSLSPGEGATLSCRASQNVSRHYLTWYQQKPGQSPRLLIYGGSSRATGVPDRFSGGGSGTDFTLTISRLEPEDFAVFYCQSYHSPPPVYTFGQGTKVEIK
notes: V regions cloned into vectors providing IgG1 and Ig-kappa constant regions; source: recombinant, harvested from transfected CHO cells (SPR); recombinant antibodies were also produced in HEK293T cells
As to B5, the binding result in the assay with recombinant human IFNω is reported as “no binding”.

B6: 26B9, APS1/APECED patient-derived anti-IFN monoclonal antibody (antibody, V domains shown)
VH: QILLQESGPGLVKPTETLSLTCSVSGDSISDSSHYWAWIRQPPGKGPEWIGSVYFSSMTHYNPSLKSRVSISVDKPKNQFSLKVTSVTVADTATYYCARQALARVGAMNWFDPWGQGSLVTVSS
VL: DIIMTQSPDSLPVSLGEGVTINCKSSQSVFFTSSNKSCLAWYQQKPGKSPKLLIYWASTRQSGVPDRFRGSGSGTDFSLTITSLQAEDVAVYFCQQCQTSPPTFGGGTRLEIK
notes: as for B5
In the case of B6, the Kd in the assay with recombinant human IFNα14 came out at 0.0328 pM. Also, the binding result with recombinant human IFNα4 and with recombinant human IFNω was “binds” each time.

B7: 35G11, patient-derived IgGλ antibody specific for IL22 (antibody, V domains shown)
VH: QVQLVQSGSELRRPGASVNISCKASGYGFNTYAMNWVRQAPGQGPEWMGWINTDTGDPTYAQGFTGRFAFFLDTSASTAFLQITRLTGEDTAVYFCARTRNNWNGVYYHYSGLDVWGQGTTVTVSS
VL: QSVLTQPPSASGTPGQTVTISCSGSSPNLGDNYVYWYHQVPGTAPKLLIFRNTQRPSGVTDRFSGSKYGTSASLAISDLRSDDEGDFYCASWDDRLSRLVFGGGTKLTVL
notes: lambda light chain; IgG1 lambda by the cloning vectors; source: recombinant
For B7, the Kd with human IL22 came out at 39 pM.

The record behind these values is publication PMC4967814 (Cell, 2016).
